Results on 2 molecules are retold here after PMC13047697.

Read-outs that look alike come from different tables or passages of the source.

For orientation: Kd means the free concentration of one partner at which half of the binding sites on the other are occupied at equilibrium, for simple one-to-one binding. Higher therefore signals lower affinity.

Common to all, as to assay: native MS
In series [1] the target is T1, SsoSSB WT (Saccharolobus solfataricus DSM 1617 …, UniProt Q97W73 1-148).
T1 sequence: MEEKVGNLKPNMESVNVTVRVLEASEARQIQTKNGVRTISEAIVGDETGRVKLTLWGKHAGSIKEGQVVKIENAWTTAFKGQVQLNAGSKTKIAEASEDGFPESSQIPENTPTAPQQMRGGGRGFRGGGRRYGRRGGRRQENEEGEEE

The target of series [2] is T1, SsoSSB WT. This is another data set of the same source.
For series [3], the target named is T1, SsoSSB WT. The source holds these as a separate data set.
For series [4], the target named is T1, SsoSSB WT. This is another data set of the same source.

Turning to TTTTTTTTTTTTTTTTTTTTTTTTTTTTTT (ssDNA) [T30], the Kd in the series with SsoSSB WT [1] amounted to 266 nM; in the series with SsoSSB WT [2], 253 nM; in the series with SsoSSB WT [3], 197 nM; with SsoSSB WT [4], 209 nM.
TTTTTTTTTTTTTTT (ssDNA) [T15]: the Kd with SsoSSB WT [1] is 1320 nM; with SsoSSB WT [2], 1240 nM; with SsoSSB WT [3], 1940 nM; with SsoSSB WT [4], 2080 nM.
